Data taken from patent US20110239327A1, “Nematicidal Effects of Cysteine Proteinases and Methods of Use Thereof to Treat Nematode Infestation” (priority 2007, published 2011).
“Also recorded” adds a separate entry of the source.

Experiments:
G. rostochiensis J2s = assay: In vitro mobility and cuticle damage of G. rostochiensis J2s; assay type: cell-based, Globodera rostochiensis
Procedure: Eggs of M. incognita race 1 from North Carolina State University, USA, and M. javanica from Portugal were collected from the roots of infected tomato plants grown in a glasshouse at 23° C. in a 16:8 h light-dark regime. Eggs were extracted using 1% hypochlorite (NaClO) solution (Hussey and Barker, 1973) or by picking egg masses from the infected roots. M. incognita and M. javanica were both used in the experiments and produced similar results. Juveniles (J2) were hatched from the eggs and egg masses in water. Globodera rostochiensis cysts were washed extensively in distilled water. Hatched J2s were obtained by incubating cysts in distilled water for 4 days followed by exposure to potato root diffusate (PRD).
Approximately 1000 J2s (second juvenile stage) of M. incognita or M. javanica were incubated per well of a 48-well plate with the following active enzyme concentrations (determined by E-64 titration) of papain dissolved in distilled water containing 16 mM L-cysteine (to activate the cysteine proteinase): 1.5 μM, 3 μM, 6.25 μM, 12.5 μM, 25 μM, 50 μM, 75 μM and 100 μM. […] The number of active J2s per well was counted prior to the addition of papain, and then the J2s were incubated in the dark at room temperature for 3 h. The number of mobile J2s per well was counted after 60, 120 and 180 mins. […]

[1] = tested on: adult females of M. incognita; assay: Light microscopy of Meloidogyne adult female worms incubated with papain; assay type: cell-based; parameters: digestion of the cuticle of adult females: dose or concentration left out as unconfirmed
Procedure: To assess whether these enzymes also affected the cuticles of other stages of the nematodes, five adult females of M. […], prepared in 16 mM L-cysteine dissolved in phosphate buffered saline (PBS), pH 7.4, or PBS, pH 7.4 with and without 16 mM L-cysteine. These nematodes were incubated in the dark at ambient temperature for 4 h and were then examined using a light microscope at ×10 and ×20 magnification to observe any differences to the nematode body wall.

Meloidogyne spp. eggs = assay: Effect on eggs, hatching and development of Meloidogyne spp.; assay type: cell-based
Procedure: To determine if the enzymes affected the eggshell and/or the development and hatching of the juveniles which the eggs contain, approximately 300 Meloidogyne spp. eggs were incubated per well of a 48-well plate, in duplicate, in 50 μM (active enzyme) papain, prepared in 16 mM L-cysteine dissolved in distilled water, or distilled water with and without 16 mM L-cysteine. The number of eggs in each well was counted before the addition of papain and then the eggs were incubated in the dark at room temperature for 4 h. The number of eggs was counted before further incubation overnight. Finally, closer examination of the structure of the nematode eggs was performed using the light microscope at ×40 magnification.

M. incognita J2 = assay: In vitro live/dead count of M. incognita J2 in solution without soil (Example 2); assay type: cell-based; details: after 40 hs of observation, at the nematicidal concentration
Procedure: Eggs of M. incognita race 1 from North Carolina State University, USA were collected from tomato-infected roots grown in a glasshouse at 23° C. in a 16:8 h light-dark regime. Eggs were extracted using 1% hypochlorite (NaClO) solution (Hussey and Barker, 1973) or by picking egg masses from tomato-infected roots. Juveniles (J2) were hatched from the eggs and egg masses in water. Heterodera glycines eggs were obtained from soil samples stored in Rothamsted-Research. Second stage juveniles (J2) were hatched from the eggs in water after 10 days. Pratylenchus penetrans were a gift from Dr. Deeren Anne-Marie from the Institute for Agricultural and Fisheries Research, Merelbeke, Belgium. The beneficial nematodes Steinernema feltiae and Heterorhabditis megidis were a gift from Dr. Paul Williams from Becker Underwood. […]
Control wells were set up which contained J2s and distilled water with 16 mM L-cysteine. […] The actual number of active J2s per well was counted with the aid of an Olympus inverted microscope, prior to the addition of the enzymes, and then the J2s were incubated in the dark at room temperature for 2 hs, 16 hs, 24 hs or 40 hr. The number of live and dead J2s per well was counted after each enzyme incubation. […]

Heterodera glycines J2 = assay: In vitro live/dead count of Heterodera glycines J2; assay type: cell-based; details: 250 μM active papain
Procedure: Eggs of M. incognita race 1 from North Carolina State University, USA were collected from tomato-infected roots grown in a glasshouse at 23° C. in a 16:8 h light-dark regime. Eggs were extracted using 1% hypochlorite (NaClO) solution (Hussey and Barker, 1973) or by picking egg masses from tomato-infected roots. Juveniles (J2) were hatched from the eggs and egg masses in water. Heterodera glycines eggs were obtained from soil samples stored in Rothamsted-Research. Second stage juveniles (J2) were hatched from the eggs in water after 10 days. Pratylenchus penetrans were a gift from Dr. Deeren Anne-Marie from the Institute for Agricultural and Fisheries Research, Merelbeke, Belgium. The beneficial nematodes Steinernema feltiae and Heterorhabditis megidis were a gift from Dr. Paul Williams from Becker Underwood.
Control wells were set up which contained J2s and distilled water with 16 mM L-cysteine. Each enzyme concentration and the controls were set up in duplicate (i.e. n=2). […] The number of live and dead J2s per well was counted after each enzyme incubation. The same procedure was followed when setting up further experiments to compare the effects of these enzymes with Heterodera glycines J2, Pratylenchus penetrans, Steinernema feltiae and Heterorhabditis megidis.

B1: papain (protein, UniProt P00784 134-345, looked up)
Papain: IPEYVDWRQKGAVTPVKNQGSCGSCWAFSAVVTIEGIIKIRTGNLNEYSEQELLDCDRRSYGCNGGYPWSALQLVAQYGIHYRNTYPYEGVQRYCRSREKGPYAAKTDGVRQVQPYNEGALLYSIANQPVSVVLEAAGKDFQLYRGGIFVGPCGNKVDHAVAAVGYGPNYILIKNSWGTGWGENGYIRIKRGTGNSYGVCGLYTSSFYPVKN
notes: cysteine proteinase from Carica papaya, Merops C01.001, Sigma P3125
Question: Which “mobility (proportion of active worms) of G. rostochiensis J2s” value (G. rostochiensis J2s; 25 μM active enzyme) does the source give for B1 here?
Answer: The value was “reduction in mobility was significantly greater overall; also recorded: Reductions in the proportion of active worms were evident”.

Question: And the “incubation needed before damage to the cuticle, compared to Meloidogyne spp.” value (G. rostochiensis J2s; data not shown)?
Answer: Its value is “needed longer incubation periods”.

Question: And the “digestion of the cuticle of adult females (light micrographs)” value ([1]; 25 μM active papain, 4 h)?
Answer: The value was “Digestion of the cuticle was evident”.

Question: And the “digestion of the cuticle of adult females” value ([1]; active papain)?
Answer: Its value is “digestion of the cuticle was evident”.

Question: What about the “hatching and development of the J2 stage” value (Meloidogyne spp. eggs; incubation of the eggs with enzyme) of the same molecule?
Answer: The value was “not affected”.

Question: And the “effect on eggs / structure of the eggs” value (Meloidogyne spp. eggs; light microscopy, up to overnight incubation)?
Answer: The value was “remained unaffected”.

Question: And the recovery of movement (M. incognita J2)?
Answer: Its recovery of movement is “not able to recover movement”.

Question: And the “state of the nematodes after incubation” value (Heterodera glycines J2; 16 hs)?
Answer: Its value is “dead”.

Question: What about the recovery (Heterodera glycines J2; after 48 hs) of the same molecule?
Answer: The recovery was “no recovery”.
